The source of these data is US11230591 (Merck Sharp & Dohme, dated 2022).

For assay [1], the target named is gB on infectious CMV (neutralization assays) (human cytomegalovirus). The assay is described as follows: cell-based or functional assay.
In assay [2] the target is T1, CMV virions.
T1 construct: also called whole virions
Nature of the assay: virion ELISA.

B1: 3-25 (antibody, V domains shown)
VH: QVQLVESGGGVVQPGRSLRLSCAASGFTFSNHGLHWVRQPPGKGLEWVAVVSKDGTNEHYADSVRGRFTISRDNSKNTLYLLMKSLRLEDTAVYYCAREGYCGDDRCYSGQPDYWGQGILVTVSS
VL: EIVLTQFPATLSLSPGERATLSCRASQSVGRYLAWYQQKPGQAPRLLIYDSSNRATGVPARFSGSGSGTDFTLSISSLEPEDFAVYFCQQRSHWPPLTFGGGTKVEIK
notes: also called antibody 3-25; clone 3-25
As a reminder, the EC50 is the concentration needed to bring the measured effect to its halfway point. A lower EC50 goes with a more potent agent. For B1, the “EC50 Neutralizing” value in assay [1] worked out at 0.3 µg/mL. In assay [2], the EC50 was 0.04 µg/mL.
